Reference: patent publication EP4484563A1

What was measured:
Experiment in all cases: cell-based or functional assay
human CD8a (human) = human CD8a (human) (UniProt P01732)
[1] = biological target: T cell receptor (TCRab) (human)
CD14 = biological target: T1, CD14 (UniProt P08571)
T1 sequence: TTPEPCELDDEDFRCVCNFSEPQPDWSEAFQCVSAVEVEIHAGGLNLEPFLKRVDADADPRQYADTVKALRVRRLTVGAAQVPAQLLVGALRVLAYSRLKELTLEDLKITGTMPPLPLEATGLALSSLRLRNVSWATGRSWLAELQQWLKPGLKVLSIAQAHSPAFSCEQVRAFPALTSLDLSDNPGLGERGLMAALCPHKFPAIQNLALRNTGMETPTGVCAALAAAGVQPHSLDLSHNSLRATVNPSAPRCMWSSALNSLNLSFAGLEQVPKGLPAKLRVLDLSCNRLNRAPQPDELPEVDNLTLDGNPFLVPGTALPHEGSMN

Sequence of UniProt P01732 (P01732 22-235): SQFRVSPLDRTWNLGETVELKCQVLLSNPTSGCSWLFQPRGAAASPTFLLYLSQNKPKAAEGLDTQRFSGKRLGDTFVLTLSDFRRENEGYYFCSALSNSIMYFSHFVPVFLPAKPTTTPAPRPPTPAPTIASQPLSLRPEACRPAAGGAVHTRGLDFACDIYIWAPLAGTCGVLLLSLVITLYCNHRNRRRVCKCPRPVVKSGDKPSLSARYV

B1: membrane anchored VHH targeting human CD8a (VHH)
VHH: EVQLVESGGGLVQPGGSLRLSCAASGFTFDDYVIGWFRQAPGKGREGVACIRIFDRHTYYADSVKGRFTISSDNSKNTVYLQMNSLRAEDTATYYCAAGSFFGCTRPEGDMDYFGQGTLVQVQS
Q: B1 was tested. Which percentage transduction of target negative cells (flow cytometry, day 7) (human CD8a (human)) did it give?
A: < 1%

B2: TCRab VHH (VHH)
VHH: EVQLVESGGGLVQPGGSLRLSCAASGDVHKINILGWYRQAPAKEREMVAHITIGDATDYADSAKGRFTISRDEAKNMVYLQMNSLKPEDTAVYFCRAYSRIYPYNYWGQGTLVTVSS
Q: For B2, which percentage transduction of target negative cells (flow cytometry, day 7) [1] is on record?
A: < 1%

B3: membrane anchored anti-CD14 scFv (scFv)
scFv: DDVQLQQSGPGLVKPSQSLSLTCTVTGYSITSDSAWNWIRQFPGNRLEWMGYISYSGSTSYNPSLKSRISITRDTSKNQFFLQLNSVTTEDTATYYCVRGLRFAYWGQGTLVTVSSGGGGSGGGGSGGGGSDIVLTQSPASLAVSLGQRATISCRASESVDSYVNSFLHWYQQKPGQPPKLLIYRASNLQSGIPARFSGSGSRTDFTLTINPVEADDVATYYCQQSNEDPYTFGGGTKLEIK
Q: B3 was tested. Which percentage transduction of primary monocytes versus non-stimulated PBMCs (GFP, flow cytometry, day 7) (CD14) did it give?
A: < 2%

B4: Nanobody (VHH) CD14 3RMB1 (VHH)
VHH: QVQLQESGGGLVQSGGSLRLSCAVSGSIFSIVDMGWYRQAPGKGRELVAELSDGSTNYADSVLGRFTISRDNAKNTVYLQMNSLKPEDTAVYYCNADLTGSSWSPYRYLEVWGQGTQVTVSS
Q: How did the percentage transduction of target negative cells (flow cytometry, 7-14 days) (CD14) turn out when B4 was run?
A: < 1%
